We go through eleven molecules from patent publication US20180009871A1 (INTARCIA THERAPEUTICS, published 2018).

Common to all, as to experiment: cell-based or functional assay
Assay [1] has as its target human glucagon receptor (GCGR) (human, UniProt P47871 26-477).
Assay [2] has as its target human GLP-1 receptor (GLP-1R) (human, UniProt P43220 24-463).
Target sequence in this assay (P43220 24-463): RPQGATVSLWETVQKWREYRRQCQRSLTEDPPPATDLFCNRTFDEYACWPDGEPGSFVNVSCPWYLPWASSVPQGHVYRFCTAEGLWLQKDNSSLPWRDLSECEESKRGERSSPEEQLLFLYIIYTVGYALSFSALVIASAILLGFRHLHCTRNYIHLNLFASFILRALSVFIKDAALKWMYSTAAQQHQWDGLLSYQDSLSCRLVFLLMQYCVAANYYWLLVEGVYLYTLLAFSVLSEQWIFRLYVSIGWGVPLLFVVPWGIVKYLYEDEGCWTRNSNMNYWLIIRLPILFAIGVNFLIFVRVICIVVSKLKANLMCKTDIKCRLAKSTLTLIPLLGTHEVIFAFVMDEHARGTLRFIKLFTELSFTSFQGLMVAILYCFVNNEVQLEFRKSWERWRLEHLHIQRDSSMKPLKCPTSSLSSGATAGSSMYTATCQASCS
The target of assay [3] is human glucagon receptor (GCGR) (human, UniProt P47871 26-477). The source holds these as a separate data set.
For assay [4], the target named is human GLP-1 receptor (GLP-1R) (human, UniProt P43220 24-463). This is another data set of the same source.
Target sequence in this assay (P43220 24-463): as above

Where no end group is shown, it is not given here. [ ]: non-standard residue; d: D form. Formula III = not defined here; Formula II = not defined here; Aib = CC(C)(N)C(=O)O

B1: Compound B2 (peptide)
peptide: YSHGTFTSDYSKYLD[Aib]KYAQEFVK(Formula II)WLEDEPSSGAPPPS-OH
modifications: reading uncertain
For the molecule B1, the “GluR pEC 50” value in assay [1] was determined as 11.1 pEC50. Moreover, in assay [2], the “GLP-1R pEC 50” value is less than 6 pEC50.

B2: Compound B4 (peptide)
peptide: YSHGTFTSDK(Formula II)SKYLD[Aib]KYAQEFV[Aib]WLEDEPSSGAPPPS-OH
modifications: reading uncertain
In the case of B2, the “GluR pEC 50” value in assay [1] was found to be 9.1 pEC50. Also, the “GLP-1R pEC 50” value in assay [2] is less than 6 pEC50.

B3: Compound A26 (peptide)
peptide: YSHGTFTSDYSKYLD[Aib]KRAQEFV[Aib]WLEDEPSSGAPPPSE-OH
modifications: N-terminus assumed
SMILES: CC(C)C[C@H](NC(=O)[C@H](Cc1ccc(O)cc1)NC(=O)[C@H](CCCCN)NC(=O)[C@H](CO)NC(=O)[C@H](Cc1ccc(O)cc1)NC(=O)[C@H](CC(=O)O)NC(=O)[C@H](CO)NC(=O)[C@@H](NC(=O)[C@H](Cc1ccccc1)NC(=O)[C@@H](NC(=O)CNC(=O)[C@H](Cc1c[nH]cn1)NC(=O)[C@H](CO)NC(=O)[C@@H](N)Cc1ccc(O)cc1)[C@@H](C)O)[C@@H](C)O)C(=O)N[C@@H](CC(=O)O)C(=O)NC(C)(C)C(=O)N[C@@H](CCCCN)C(=O)N[C@@H](CCCNC(=N)N)C(=O)N[C@@H](C)C(=O)N[C@@H](CCC(N)=O)C(=O)N[C@@H](CCC(=O)O)C(=O)N[C@@H](Cc1ccccc1)C(=O)N[C@H](C(=O)NC(C)(C)C(=O)N[C@@H](Cc1c[nH]c2ccccc12)C(=O)N[C@@H](CC(C)C)C(=O)N[C@@H](CCC(=O)O)C(=O)N[C@@H](CC(=O)O)C(=O)N[C@@H](CCC(=O)O)C(=O)N1CCC[C@H]1C(=O)N[C@@H](CO)C(=O)N[C@@H](CO)C(=O)NCC(=O)N[C@@H](C)C(=O)N1CCC[C@H]1C(=O)N1CCC[C@H]1C(=O)N1CCC[C@H]1C(=O)N[C@@H](CO)C(=O)N[C@@H](CCC(=O)O)C(=O)O)C(C)C
Turning to B3, the “hGCGR pEC50 (cAMP)” value in assay [3] came to 11.1 pEC50. Further, the “hGLP1 pEC50 (cAMP)” value in assay [4] was less than 9 pEC50.

B4: Compound B3 (peptide)
peptide: YSHGTFTSDYSKYLDK(Formula II)KYAQEFV[Aib]WLEDEPSSGAPPPS-OH
modifications: reading uncertain
For B4, in assay [1], the “GluR pEC 50” value is 11.4 pEC50. Besides, in assay [2], the “GLP-1R pEC 50” value is less than 6 pEC50.

B5: Compound A22 (peptide)
peptide: YSHGTFTSDYSKYLD[Aib]KRAQEFV[Aib]WLEDEPSSGSPPPS-OH
modifications: N-terminus assumed
SMILES: CC(C)C[C@H](NC(=O)[C@H](Cc1ccc(O)cc1)NC(=O)[C@H](CCCCN)NC(=O)[C@H](CO)NC(=O)[C@H](Cc1ccc(O)cc1)NC(=O)[C@H](CC(=O)O)NC(=O)[C@H](CO)NC(=O)[C@@H](NC(=O)[C@H](Cc1ccccc1)NC(=O)[C@@H](NC(=O)CNC(=O)[C@H](Cc1c[nH]cn1)NC(=O)[C@H](CO)NC(=O)[C@@H](N)Cc1ccc(O)cc1)[C@@H](C)O)[C@@H](C)O)C(=O)N[C@@H](CC(=O)O)C(=O)NC(C)(C)C(=O)N[C@@H](CCCCN)C(=O)N[C@@H](CCCNC(=N)N)C(=O)N[C@@H](C)C(=O)N[C@@H](CCC(N)=O)C(=O)N[C@@H](CCC(=O)O)C(=O)N[C@@H](Cc1ccccc1)C(=O)N[C@H](C(=O)NC(C)(C)C(=O)N[C@@H](Cc1c[nH]c2ccccc12)C(=O)N[C@@H](CC(C)C)C(=O)N[C@@H](CCC(=O)O)C(=O)N[C@@H](CC(=O)O)C(=O)N[C@@H](CCC(=O)O)C(=O)N1CCC[C@H]1C(=O)N[C@@H](CO)C(=O)N[C@@H](CO)C(=O)NCC(=O)N[C@@H](CO)C(=O)N1CCC[C@H]1C(=O)N1CCC[C@H]1C(=O)N1CCC[C@H]1C(=O)N[C@@H](CO)C(=O)O)C(C)C
Regarding B5, the “hGCGR pEC50 (cAMP)” value in assay [3] is 11 pEC50. The “hGLP1 pEC50 (cAMP)” value in assay [4] was less than 9 pEC50.

B6: Compound A24 (peptide)
peptide: YSHGTFTSDYSKYLD[Aib]KRAQEFV[Aib]WLEDEPSSKGAPPPS-OH
modifications: N-terminus assumed
SMILES: CC(C)C[C@H](NC(=O)[C@H](Cc1ccc(O)cc1)NC(=O)[C@H](CCCCN)NC(=O)[C@H](CO)NC(=O)[C@H](Cc1ccc(O)cc1)NC(=O)[C@H](CC(=O)O)NC(=O)[C@H](CO)NC(=O)[C@@H](NC(=O)[C@H](Cc1ccccc1)NC(=O)[C@@H](NC(=O)CNC(=O)[C@H](Cc1c[nH]cn1)NC(=O)[C@H](CO)NC(=O)[C@@H](N)Cc1ccc(O)cc1)[C@@H](C)O)[C@@H](C)O)C(=O)N[C@@H](CC(=O)O)C(=O)NC(C)(C)C(=O)N[C@@H](CCCCN)C(=O)N[C@@H](CCCNC(=N)N)C(=O)N[C@@H](C)C(=O)N[C@@H](CCC(N)=O)C(=O)N[C@@H](CCC(=O)O)C(=O)N[C@@H](Cc1ccccc1)C(=O)N[C@H](C(=O)NC(C)(C)C(=O)N[C@@H](Cc1c[nH]c2ccccc12)C(=O)N[C@@H](CC(C)C)C(=O)N[C@@H](CCC(=O)O)C(=O)N[C@@H](CC(=O)O)C(=O)N[C@@H](CCC(=O)O)C(=O)N1CCC[C@H]1C(=O)N[C@@H](CO)C(=O)N[C@@H](CO)C(=O)N[C@@H](CCCCN)C(=O)NCC(=O)N[C@@H](C)C(=O)N1CCC[C@H]1C(=O)N1CCC[C@H]1C(=O)N1CCC[C@H]1C(=O)N[C@@H](CO)C(=O)O)C(C)C
Consider B6, for which the “hGCGR pEC50 (cAMP)” value in assay [3] turned out to be 12.2 pEC50. Moreover, the “hGLP1 pEC50 (cAMP)” value in assay [4] is less than 9 pEC50.

B7: Compound B5 (peptide)
peptide: YSHGTFTSDYSKYLD[Aib]KYAQEFV[Aib]WLEDEPSSK(Formula III)APPPS-OH
modifications: reading uncertain
B7: in assay [1], the “GluR pEC 50” value stood at 9.6 pEC50. In addition, the “GLP-1R pEC 50” value in assay [2] is less than 6 pEC50.

B8: Compound B6 (peptide)
peptide: YSHGTFTSDYSKYLD[Aib]KYAQEFVK(Formula III)WLEDEPSSGAPPPS-OH
modifications: reading uncertain
For B8, in assay [1], the “GluR pEC 50” value was 10.1 pEC50. Further, the “GLP-1R pEC 50” value in assay [2] was less than 6 pEC50.

B9: Compound A27 (peptide)
peptide: YSHGTFTSDYSKYLD[Aib]KRAQEFV[Aib]WLEDEGGPSSGAPPPS-OH
modifications: N-terminus assumed
SMILES: CC(C)C[C@H](NC(=O)[C@H](Cc1ccc(O)cc1)NC(=O)[C@H](CCCCN)NC(=O)[C@H](CO)NC(=O)[C@H](Cc1ccc(O)cc1)NC(=O)[C@H](CC(=O)O)NC(=O)[C@H](CO)NC(=O)[C@@H](NC(=O)[C@H](Cc1ccccc1)NC(=O)[C@@H](NC(=O)CNC(=O)[C@H](Cc1c[nH]cn1)NC(=O)[C@H](CO)NC(=O)[C@@H](N)Cc1ccc(O)cc1)[C@@H](C)O)[C@@H](C)O)C(=O)N[C@@H](CC(=O)O)C(=O)NC(C)(C)C(=O)N[C@@H](CCCCN)C(=O)N[C@@H](CCCNC(=N)N)C(=O)N[C@@H](C)C(=O)N[C@@H](CCC(N)=O)C(=O)N[C@@H](CCC(=O)O)C(=O)N[C@@H](Cc1ccccc1)C(=O)N[C@H](C(=O)NC(C)(C)C(=O)N[C@@H](Cc1c[nH]c2ccccc12)C(=O)N[C@@H](CC(C)C)C(=O)N[C@@H](CCC(=O)O)C(=O)N[C@@H](CC(=O)O)C(=O)N[C@@H](CCC(=O)O)C(=O)NCC(=O)NCC(=O)N1CCC[C@H]1C(=O)N[C@@H](CO)C(=O)N[C@@H](CO)C(=O)NCC(=O)N[C@@H](C)C(=O)N1CCC[C@H]1C(=O)N1CCC[C@H]1C(=O)N1CCC[C@H]1C(=O)N[C@@H](CO)C(=O)O)C(C)C
As for B9, in assay [3], the “hGCGR pEC50 (cAMP)” value was found to be 12.1 pEC50. The “hGLP1 pEC50 (cAMP)” value in assay [4] was less than 9 pEC50.

B10: Compound A25 (peptide)
peptide: YSHGTFTSDYSKYLD[Aib]KRAQEFV[Aib]WLEDEPSSGAPPPSS-OH
modifications: N-terminus assumed
SMILES: CC(C)C[C@H](NC(=O)[C@H](Cc1ccc(O)cc1)NC(=O)[C@H](CCCCN)NC(=O)[C@H](CO)NC(=O)[C@H](Cc1ccc(O)cc1)NC(=O)[C@H](CC(=O)O)NC(=O)[C@H](CO)NC(=O)[C@@H](NC(=O)[C@H](Cc1ccccc1)NC(=O)[C@@H](NC(=O)CNC(=O)[C@H](Cc1c[nH]cn1)NC(=O)[C@H](CO)NC(=O)[C@@H](N)Cc1ccc(O)cc1)[C@@H](C)O)[C@@H](C)O)C(=O)N[C@@H](CC(=O)O)C(=O)NC(C)(C)C(=O)N[C@@H](CCCCN)C(=O)N[C@@H](CCCNC(=N)N)C(=O)N[C@@H](C)C(=O)N[C@@H](CCC(N)=O)C(=O)N[C@@H](CCC(=O)O)C(=O)N[C@@H](Cc1ccccc1)C(=O)N[C@H](C(=O)NC(C)(C)C(=O)N[C@@H](Cc1c[nH]c2ccccc12)C(=O)N[C@@H](CC(C)C)C(=O)N[C@@H](CCC(=O)O)C(=O)N[C@@H](CC(=O)O)C(=O)N[C@@H](CCC(=O)O)C(=O)N1CCC[C@H]1C(=O)N[C@@H](CO)C(=O)N[C@@H](CO)C(=O)NCC(=O)N[C@@H](C)C(=O)N1CCC[C@H]1C(=O)N1CCC[C@H]1C(=O)N1CCC[C@H]1C(=O)N[C@@H](CO)C(=O)N[C@@H](CO)C(=O)O)C(C)C
With B10, in assay [3], the “hGCGR pEC50 (cAMP)” value worked out at 11.3 pEC50. In addition, the “hGLP1 pEC50 (cAMP)” value in assay [4] is less than 9 pEC50.

B11: Compound A23 (peptide)
peptide: YSHGTFTSDYSKYLD[Aib]KRAQEFV[Aib]WLEDEPSSKAPPPS-OH
modifications: N-terminus assumed
SMILES: CC(C)C[C@H](NC(=O)[C@H](Cc1ccc(O)cc1)NC(=O)[C@H](CCCCN)NC(=O)[C@H](CO)NC(=O)[C@H](Cc1ccc(O)cc1)NC(=O)[C@H](CC(=O)O)NC(=O)[C@H](CO)NC(=O)[C@@H](NC(=O)[C@H](Cc1ccccc1)NC(=O)[C@@H](NC(=O)CNC(=O)[C@H](Cc1c[nH]cn1)NC(=O)[C@H](CO)NC(=O)[C@@H](N)Cc1ccc(O)cc1)[C@@H](C)O)[C@@H](C)O)C(=O)N[C@@H](CC(=O)O)C(=O)NC(C)(C)C(=O)N[C@@H](CCCCN)C(=O)N[C@@H](CCCNC(=N)N)C(=O)N[C@@H](C)C(=O)N[C@@H](CCC(N)=O)C(=O)N[C@@H](CCC(=O)O)C(=O)N[C@@H](Cc1ccccc1)C(=O)N[C@H](C(=O)NC(C)(C)C(=O)N[C@@H](Cc1c[nH]c2ccccc12)C(=O)N[C@@H](CC(C)C)C(=O)N[C@@H](CCC(=O)O)C(=O)N[C@@H](CC(=O)O)C(=O)N[C@@H](CCC(=O)O)C(=O)N1CCC[C@H]1C(=O)N[C@@H](CO)C(=O)N[C@@H](CO)C(=O)N[C@@H](CCCCN)C(=O)N[C@@H](C)C(=O)N1CCC[C@H]1C(=O)N1CCC[C@H]1C(=O)N1CCC[C@H]1C(=O)N[C@@H](CO)C(=O)O)C(C)C
For B11, the “hGCGR pEC50 (cAMP)” value in assay [3] came out at 11.2 pEC50. Besides, the “hGLP1 pEC50 (cAMP)” value in assay [4] was less than 9 pEC50.
